Results published in patent US20130052670A1 (MERCK, published 2013).

Key:
[1] = target: T1, Aβ oligomers (ADDLs, amyloid-β derived diffusible ligands) prepared from Aβ42 (UniProt P05067 672-713); assay: one-sided ELISA, plate coated with Aβ oligomers (50 pmol/well), 19.3 titrated, anti-human IgG-AP, luminescence
T1 construct: domain: amyloid β peptide 1-42; Heterogeneous mixture of multimers; number of chains not defined; Concentrations are calculated on the Aβ monomer molecular weight (MW 4513); also called ADDL species of Aβ oligomers; Aβ oligomer standards
Method: (§1) Next day, plates were washed five times with PBS+0.05% Tween-20 and blocked overnight with Casein blocking buffer (Thermo Scientific, Waltham, Mass.) and 0.05% Tween-20. […] After two hours at room temperature incubation, the plates were washed and alkaline phosphatase conjugated anti-human IgG (ThermoScientific, Waltham, Mass.) was added at 0.08 μg/ml. After incubation for 45 minutes at room temperature, the plates were washed and Tropix CDP star (Applied Biosystems, Foster City, Calif.) was added. Luminescence was detected after 30 minutes on an EnVision® plate reader (PerkinElmer, Waltham, Mass.). Curve fits were completed using GraphPad Prism (GraphPad Software, Inc., San Diego, Calif.) software.

[2] = target: T1, Aβ oligomers (ADDLs, amyloid-β derived …); assay: one-sided ELISA on coated plates
Method: as §1

[3] = target: T2, Aβ40 monomer (amyloid β peptide 1-40) (UniProt P05067 672-711); assay: one-sided ELISA, plate coated with Aβ40 monomer (100 pmol/well), 19.3 titrated, anti-human IgG-AP, luminescence
T2 construct: domain: amyloid β peptide 1-40; also called monomeric Aβ40; Aβ monomer
Method: as §1

T1 sequence (P05067 672-713 limits assumed): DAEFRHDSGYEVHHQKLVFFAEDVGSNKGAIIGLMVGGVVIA
T2 sequence (P05067 672-711 limits assumed): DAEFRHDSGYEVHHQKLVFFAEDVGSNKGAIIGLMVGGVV

B1: anti-Aβ oligomer antibody 19.3 (antibody, V domains shown)
VH: EVQLVESGGGLVQPGGSLRLSCAASGFTFSSFGMHWVRQAPGKGLEWVAYISRGSSTIYYADTVKGRFTISRDNAKNSLYLQMNSLRAEDTAVYYCARGITTALDYWGQGTLVTVSS
VL: DVVMTQSPLSLPVTPGEPASISCRSSQSIVHSNGNTYLEWYLQKPGQSPQLLIYKASNRFSGVPDRFSGSGSGTDFTLKISRVEAEDVGVYYCFQGSRLGPSFGQGTKLEIK
notes: In the sandwich assays it was coated on plates or covalently coupled to paramagnetic micro-particle beads; not shown: human immunoglobulin kappa light chain constant region
With B1 the EC50 [1] was 1.6 nM, the “fold greater potency than for Aβ40 monomer” value [2] was about 3.7 fold and the EC50 [3] was 4.3 nM.
